B1: STIM001 human IgG1 (antibody, V domains shown)
VH: QVQVVQSGAEVKKPGASVKVSCKASGYTFSTFGITWVRQAPGQGLEWMGWISAYNGDTNYAQNLQGRVIMTTDTSTSTAYMELRSLRSDDTAVYYCARSSGHYYYYGMDVWGQGTTVTVSS
VL: DIVMTQSPLSLPVTPGEPASISCRSSQSLLHSNEYNYLDWYLQKPGQSPQLLIFLGSNRASGVPDRFSGSGSGTDFTLKITRVEAEDVGIYYCMQSLQTPLTFGGGTKVEIKR
notes: Human IgG1 format; Conjugated with AF647 in the direct staining assays, coupled to beads or plates in the MJ cell assays; also called STIM001 (hIgG1); STIM001 hIgG1
B2: STIM001 Fab (Fab, V domains shown)
VH: QVQVVQSGAEVKKPGASVKVSCKASGYTFSTFGITWVRQAPGQGLEWMGWISAYNGDTNYAQNLQGRVIMTTDTSTSTAYMELRSLRSDDTAVYYCARSSGHYYYYGMDVWGQGTTVTVSS
VL: DIVMTQSPLSLPVTPGEPASISCRSSQSLLHSNEYNYLDWYLQKPGQSPQLLIFLGSNRASGVPDRFSGSGSGTDFTLKITRVEAEDVGIYYCMQSLQTPLTFGGGTKVEIK
notes: Recombinantly expressed purified Fab
B3: STIM003 human IgG1 (antibody, V domains shown)
VH: EVQLVESGGGVVRPGGSLRLSCVASGVTFDDYGMSWVRQAPGKGLEWVSGINWNGGDTDYSDSVKGRFTISRDNAKNSLYLQMNSLRAEDTALYYCARDFYGSGSYYHVPFDYWGQGILVTVSS
VL: EIVLTQSPGTLSLSPGERATLSCRASQSVSRSYLAWYQQKRGQAPRLLIYGASSRATGIPDRFSGDGSGTDFTLSISRLEPEDFAVYYCHQYDMSPFTFGPGTKVDIKR
notes: Human IgG1 format; Conjugated with AF647 in the direct staining assays, coupled to beads or plates in the MJ cell assays; also called STIM003 (hIgG1); STIM003 hIgG1
B4: STIM003 Fab (Fab, V domains shown)
VH: EVQLVESGGGVVRPGGSLRLSCVASGVTFDDYGMSWVRQAPGKGLEWVSGINWNGGDTDYSDSVKGRFTISRDNAKNSLYLQMNSLRAEDTALYYCARDFYGSGSYYHVPFDYWGQGILVTVSS
VL: EIVLTQSPGTLSLSPGERATLSCRASQSVSRSYLAWYQQKRGQAPRLLIYGASSRATGIPDRFSGDGSGTDFTLSISRLEPEDFAVYYCHQYDMSPFTFGPGTKVDIK
notes: as for B2

Columns and labels:
[1] = biological target: T1, Human ICOS on cells (human, UniProt Q9Y6W8 21-199); experiment: cell-based or functional assay
T1 sequence: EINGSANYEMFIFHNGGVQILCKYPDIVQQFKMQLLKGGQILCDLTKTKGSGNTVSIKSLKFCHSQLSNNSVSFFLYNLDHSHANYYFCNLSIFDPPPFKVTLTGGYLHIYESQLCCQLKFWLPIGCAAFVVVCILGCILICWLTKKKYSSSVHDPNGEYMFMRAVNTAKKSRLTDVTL

[2] = biological target: T1, Human ICOS on cells; experiment: cell-based or functional assay; remark: listed apart in the source
[3] = biological target: T2, human ICOS-mFc (Chimerigen) (human, UniProt Q9Y6W8 21-140); experiment: HTRF neutralisation of Alexa 647 human B7-H2 binding to human ICOS-mFc; human IgG1; mean, n = 4
T2 construct: also called human ICOS receptor; human ICOS Receptor; not shown: mouse Fc of the bought construct
T2 sequence: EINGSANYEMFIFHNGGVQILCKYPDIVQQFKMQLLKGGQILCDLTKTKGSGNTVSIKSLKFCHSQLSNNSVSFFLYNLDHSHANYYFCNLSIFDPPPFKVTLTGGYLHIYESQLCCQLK
Procedure: (§1) 5 μl of ICOS receptor (human ICOS-mFc, 20 nM, 5 nM final or mouse ICOS-mFc 4 nM, 1 nM final (Chimerigen)) was added to required wells. Plate was incubated for 1 hr at room temperature (RT).
(§2) Finally, 5 μl of anti-mouse IgG donor mAb (Southern Biotech) labelled with europium cryptate (Cis Bio), 40 nM, 10 nM final was added to each well and the assay was left in the dark at RT to incubate for a further 2 hours. After incubation, assay was read on Envision plate reader (Perkin Elmer) using a standard HTRF protocol. […] Titration curves and IC50 values [M] were plotted using Graphpad (Prism). IC50 values were calculated by first transforming the data using equation X=Log(X). The transformed data was then fitted using nonlinear regression, using fitting algorithm, log (inhibitor) vs. response—variable slope (four parameters).

[4] = biological target: T3, mouse ICOS-mFc (Chimerigen) (mouse, UniProt Q9WVS0 21-141, limits assumed); experiment: HTRF neutralisation of Alexa 647 mouse B7-H2 binding to mouse ICOS-mFc; human IgG1; mean, n = 3
T3 construct: also called mouse ICOS receptor; mouse ICOS Receptor; not shown: mouse Fc of the bought construct
T3 sequence: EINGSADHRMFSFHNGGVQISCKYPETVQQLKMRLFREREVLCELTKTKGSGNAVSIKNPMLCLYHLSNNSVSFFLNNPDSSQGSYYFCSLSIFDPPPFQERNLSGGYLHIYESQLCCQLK
Procedure: as §1, §2

[5] = biological target: T1, Human ICOS on cells; experiment: flow cytometry on activated human pan T cells (row Human), second donor column
[6] = biological target: T4, Cynomolgus ICOS on activated cynomolgus T cells (cynomolgus, UniProt Q9Y6W8 21-195 (human entry)); experiment: flow cytometry, AF647 pre-labelled hIgG1 on activated cynomolgus pan T cells, donor 1
T4 construct: also called NHP ICOS
T4 chain: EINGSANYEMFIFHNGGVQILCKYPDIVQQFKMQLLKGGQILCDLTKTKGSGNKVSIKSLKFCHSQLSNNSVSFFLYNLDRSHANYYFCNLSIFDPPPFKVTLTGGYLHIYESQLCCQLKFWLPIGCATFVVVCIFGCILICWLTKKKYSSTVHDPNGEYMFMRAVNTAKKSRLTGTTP
Procedure: (§3) PBMC from whole blood of 2 Mauritian cynomolgus macaques (Wickham Laboratories) were isolated by gradient centrifugation and cultured for 3 days with CD2/CD3/CD28 MACSiBeads (Miltenyi) to induce ICOS expression on their surface. […] Cells were also labelled with V450-CD3 to assess staining on T-cell subsets. Stained cells were run on Attune (Thermofisher) and staining intensity was presented as mean fluorescence intensity (MFI). EC50 was determined using GraphPad Prism.

[7] = biological target: T1, Human ICOS on cells; experiment: flow cytometry on activated primary human pan T cells; naked hIgG1 detected with AF647 goat anti-human Fc
Procedure: (§4) Pan T-cells (CD3 cells) were isolated and cultured for 3 days with CD3/CD28 dynabeads (Thermofisher) to induce ICOS expression on their surface. […] Stained cells were ran on the Attune and staining intensity was presented as Mean of fluorescence intensity (MFI). EC50 was determined using GraphPad Prism.

[8] = biological target: T1, Human ICOS on cells; experiment: cell-based or functional assay; remark: listed apart in the source
[9] = biological target: T1, Human ICOS on cells; experiment: flow cytometry on activated human pan T cells (row Human), first donor column
[10] = biological target: T5, Human ICOS extracellular domain fused to human Fc (human, UniProt Q9Y6W8 21-140); experiment: SPR (ProteOn XPR36), human ICOS ECD-Fc captured, Fab analyte, pH 5.5, 37 C
T5 construct: Dimeric protein made in house from NCBI NP_036224.1; also called hICOS; hICOS Fc; not shown: human Fc region
T5 sequence: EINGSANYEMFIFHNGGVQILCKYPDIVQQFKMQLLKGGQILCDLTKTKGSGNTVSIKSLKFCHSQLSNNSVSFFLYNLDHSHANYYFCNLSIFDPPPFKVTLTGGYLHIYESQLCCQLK
Procedure: (§5) In addition, a comparison was performed of antibody:antigen binding affinity at different pH values. As before, the dimeric human ICOS protein, presented as the extracellular domain of ICOS fused to a human Fc region, was captured on the anti-human Fc capture surface created using the 3 antibody cocktail, immobilised on the GLC biosensor chip by primary amine coupling. SPR analysis of recombinantly expressed anti-ICOS Fabs was carried out on the ProteOn XPR36 Array system (Biorad). The Fab fragments were used as analyte to generate binding sensorgrams, which were double referenced with a buffer injection (i.e., 0 nM). The subsequent referenced sensorgrams were fitted to the 1:1 model inherent to the ProteOn analysis software. […] Data were fitted to the 1:1 model.

[11] = biological target: T5, Human ICOS extracellular domain fused …; experiment: SPR (ProteOn XPR36), human ICOS ECD-Fc captured, Fab analyte, pH 5.5, 37 C (second run)
Procedure: as §5

[12] = biological target: T5, Human ICOS extracellular domain fused …; experiment: SPR (ProteOn XPR36), human ICOS ECD-Fc captured, Fab analyte, pH 7.6, 37 C
Procedure: as §5

[13] = biological target: T5, Human ICOS extracellular domain fused …; experiment: SPR (ProteOn XPR36), human ICOS ECD-Fc captured, Fab analyte, pH 7.6, 25 C
[14] = biological target: T5, Human ICOS extracellular domain fused …; experiment: SPR (ProteOn XPR36), Fc-tagged ICOS captured on anti-human IgG, Fab analyte, 25 C
Procedure: (§6) Fab affinities of the ICOS leads were generated by SPR using the ProteOn XPR3 6 (BioRad). An anti-human IgG capture surface was created on a GLC biosensor chip by primary amine coupling, immobilising three anti-human IgG antibodies (Jackson Labs 109-005-008, 109-006-008 and 309-006-008). […] Binding sensorgrams were double referenced using a buffer injection (i.e. 0 nM), and the data was fitted to the 1:1 model inherent to the ProteOn XPR36 analysis software. The assay was run at 25° C. and using HBS-EP as running buffer.

[15] = biological target: T6, Mouse ICOS extracellular domain fused to human Fc (mouse, UniProt Q9WVS0 21-141); experiment: as above
T6 construct: Made in house from NCBI NP_059508.2; also called mICOS; mICOS Fc; not shown: human Fc region
T6 sequence: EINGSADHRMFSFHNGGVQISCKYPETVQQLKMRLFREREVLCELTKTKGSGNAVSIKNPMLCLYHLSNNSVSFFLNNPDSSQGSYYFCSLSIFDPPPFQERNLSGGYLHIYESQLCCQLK
Procedure: as §6

[16] = biological target: T5, Human ICOS extracellular domain fused …; experiment: SPR (ProteOn XPR36), human ICOS ECD-Fc captured, Fab analyte, pH 7.4, 37 C
Procedure: as §5

[17] = biological target: T1, Human ICOS on cells; experiment: flow cytometry on activated primary human pan T cells; indirect binding assay; reference STIM001 hIgG1
Procedure: as §4

[18] = biological target: T4, Cynomolgus ICOS on activated cynomolgus …; experiment: flow cytometry, AF647 pre-labelled hIgG1 on activated cynomolgus pan T cells, donor 2
Procedure: as §3

Binder | EC50 (Molar unit), NK primary cell ADCC assay on ICOS-transfected CCRF-CEM cells, 4 hour time point, Donor 4 [1] [nM] | EC50 (Molar unit), NK primary cell ADCC assay on ICOS-transfected CCRF-CEM cells, 4 hour time point, Donor 5 [1] [nM] | EC50 (Molar unit), NK primary cell ADCC assay on ICOS-transfected CCRF-CEM cells, 4 hour time point, Donor 6 [1] [nM] | IC50 [3] [nM] | IC50 [4] [nM] | EC50 [5] [nM] | EC50 [6] [nM] | EC50 [7] [nM] | EC50 (Molar unit), NK primary cell ADCC assay on MJ cells, 2 hour time point, Donor 1 [8] [nM] | EC50 (Molar unit), NK primary cell ADCC assay on MJ cells, 2 hour time point, Donor 2 [8] [nM] | EC50 (Molar unit), NK primary cell ADCC assay on MJ cells, 2 hour time point, Donor 3 [8] [nM] | EC50 [9] [nM] | Kd [10] [nM] | Kd [11] [nM] | Kd [12] [nM] | Kd [13] [nM] | Kd [14] [nM] | Kd [15] [nM] | Kd [16] [nM] | further results
B1 | 0.00392 | 0.00395 | 0.00375 | 2.2 | 6.5 | 121 | 222 | 17 | 0.121 | 0.529 | 2.92 | 221 |  |  |  |  |  |  |  | EC50 (Molar unit), NK primary cells ADCC assay on MJ cells, 2 hour time point, Donor 1 [2]: 0.121 nM; EC50 (Molar unit), NK primary cells ADCC assay on MJ cells, 2 hour time point, Donor 2 [2]: 0.529 nM
B2 |  |  |  |  |  |  |  |  |  |  |  |  | 73.1 | 80.3 | 42.6 | 44 | 44 | 407 | 63.5 | 
B3 | ~0.003 | 0.000895 | 0.00103 | 1.3 | 0.1 | 0.895 | 4.58 | 0.148 | 0.00233 | 0.0358 | 0.101 | 2.29 |  |  |  |  |  |  |  | fold lower EC50 than STIM001 [17]: ~100 fold; EC50 [18]: 4.83 nM
B4 |  |  |  |  |  |  |  |  |  |  |  |  | 1.02 | 1.15 | 1.98 | 1.31 | 1.3 | 0.4 | 1.71 | 
